Key:
Experiment in all cases: SPR
[1] = biological target: D1 domain of FcμR (FcμR-D1) (human) (UniProt O60667)
[2] = biological target: cat Fcμ–J complex (cat)
[3] = biological target: human Fcμ–J–CD5L complex (human) (UniProt P01871)
[4] = biological target: human Fcμ–J complex (pentameric IgM core: IgM-Fc pentamer and the J chain) (human) (UniProt P01871)

Q: Which Kd [1] does the source give for “human Fcμ–J–CD5L complex (from UniProt P01871 106-433; P01591 23-159; O43866 20-347)” here?
A: 0.4 nM

Q: Which Kd [2] does the source give for “cat CD5L (3-SRCR isoform) (from UniProt A0A1E1GEY0 20-355) (natural protein)” here?
A: 14.4 nM

B1: D1 domain of FcμR (FcμR-D1) (domain or fragment)
chain: RILPEVKVEGELGGSVTIKCPLPEMHVRIYLCREMAGSGTCGTVVSTTNFIKAEYKGRVTLKQYPRKNLFLVEVTQLTESDSGVYACGAGMNTDRGKTQKVTLNVHS
Q: B1 was tested. Which Kd [3] did it give?
A: 8.8 nM

B2: human CD5L (CD5 antigen-like), wild type (natural protein)
chain: SPSGVRLVGGLHRCEGRVEVEQKGQWGTVCDDGWDIKDVAVLCRELGCGAASGTPSGILYEPPAEKEQKVLIQSVSCTGTEDTLAQCEQEEVYDCSHDEDAGASCENPESSFSPVPEGVRLADGPGHCKGRVEVKHQNQWYTVCQTGWSLRAAKVVCRQLGCGRAVLTQKRCNKHAYGRKPIWLSQMSCSGREATLQDCPSGPWGKNTCNHDEDTWVECEDPFDLRLVGGDNLCSGRLEVLHKGVWGSVCDDNWGEKEDQVVCKQLGCGKSLSPSFRDRKCYGPGVGRIWLDNVRCSGEEQSLEQCQHRFWGFHDCTHQEDVAVICSG
Q: Which Kd [4] does the source give for B2 here?
A: 18.1 nM

B3: human CD5L C191S (natural protein)
chain: SPSGVRLVGGLHRCEGRVEVEQKGQWGTVCDDGWDIKDVAVLCRELGCGAASGTPSGILYEPPAEKEQKVLIQSVSCTGTEDTLAQCEQEEVYDCSHDEDAGASCENPESSFSPVPEGVRLADGPGHCKGRVEVKHQNQWYTVCQTGWSLRAAKVVCRQLGCGRAVLTQKRSNKHAYGRKPIWLSQMSCSGREATLQDCPSGPWGKNTCNHDEDTWVECEDPFDLRLVGGDNLCSGRLEVLHKGVWGSVCDDNWGEKEDQVVCKQLGCGKSLSPSFRDRKCYGPGVGRIWLDNVRCSGEEQSLEQCQHRFWGFHDCTHQEDVAVICSG
Q: Which Kd [4] does the source give for B3 here?
A: 13.2 nM
